This data set concerns the molecule itself. The data set can be described thus: native gel or EMSA.

B1: MagKatG1, mesophilic catalase–peroxidase from Magnaporthe oryzae (enzyme)
chain: MGECPLRTANVAGGGTRNRDWWPNTLKLNILRQHTEATNPYDPNFDYAEAFKSLDYEGLKKDLRALMTDSQEYWPADFGHYGGLFVRMAWHSAGTYRVMDGRGGGGQGQQRFAPLNSWPDNVSLDKARRLLWPIKQKYGNKISWADLMLLTGNVALEDMGFKTFGFAGGRPDTWEADESTYWGGETTWLGNEVRYSSGNEGHKESGVIDGSESKKGHKDIHTRDLEKPVSAAHMGLIYVNPEGPDGIPDPVAAARDIRTTFSRMAMNDEETVALIAGGHTVGKTHGAAPSDNVGPEPEAAPIENQGLGWSNKHGSGKGPDTITSGLEVIWTKEPAKFTMNYLEYLFKYEWELTKSPAGANQWVAKNAEEFIPDAFDPSKKHKPRMLTTDLSLRFDPEYEKISRRFLENPEQFKDAFARAWFKLLHRDMGPRSRWLGPEVPKETLLWEDPIPTPDHPIIDGSDVDSLKKAILATGVAPSKLIQTAWASASTFRGGDKRGGANGARIRLEPQNKWEVNNPQQLAEVLKALEGVKADFEKSGKKVSIADLIVLAGVAAVEQAAGVPVPFTPGRGDATQEQTDVESFTHLEPAADAFRNYGKGTSRVTTEQIMVDRAQQLTLTAPELTVLVGGLRVLGANYDGSSHGVWTDKPGKLTNDFFVTLLDPYTSWKSVDGEVFEGTNSKSGKKLTGTRADLVFGSHSELRALAEVYGSADGQQKFTKDFVAAWDKVMNLDRFDVRRGIYDETRLKSKL
notes: also called Magnaporthe oryzae katG
With B1, the “stoichiometry N” value stood at 2.

(Values after publication PMC10376177, “Comparison of Fungal Thermophilic and Mesophilic Catalase–Peroxidases for Their Antioxidative Properties” (Antioxidants, 2023).)
